The values that follow come from the supplement of paper PMC9170038.

The series deals with MS2 coat protein. Put plainly: apparent KD of MS2 coat protein; designed switch direction (-1 OFF switch, 1 ON switch): -1; higher = weaker reporter binding. Summed up:
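Designed RNA switches were transcribed on Illumina chips by stalled E. coli RNA polymerase and titrated with SNAP-549-labelled MS2 coat protein from 0.7 or 1.5 nM, doubling to 3 µM. Step length ran from 0.8–1.5 h at the lowest concentration to 10–20 min at the highest. The apparent KD is the median over clusters for each design, from curve-fitted normalised cluster fluorescence.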

[1] abbreviates: Eterna round: R95, input ligand: FMN 200 uM.
Where [2] appears, read: Eterna round: R95, input ligand: microRNA oligo, concentration not stated.
The mark [3] stands for this setting: Eterna round: R95, input ligand: none.
[4] abbreviates: input ligand: microRNA oligo, concentration not stated.

In the case of “CUUUUUUCUGUAAGGAUAUAGCCCGCGAGAUGUGGCUAGAAGGUACAUGAGGAUCACCCAUGUGUGUCCACAUU [Eternabot (L1) Solution 55] (Eterna round: R97, puzzle: Brourd's mod of Exclusion 4)”, the “apparent KD of MS2 coat protein” value is, setting by setting: (input ligand: FMN 200 uM) 0.141 µM; (input ligand: none) 0.0468 µM.
As to “GAAAACGAAGAGGAUAUUUGAUAUCAUAGCUUCAAAGAAGGCUUCACAUGAGGAUCACCCAUGUGAUCUUCAAA [jl-ex6-4.06 ViennaUCT mod] (Eterna round: R97, puzzle: Exclusion 6)”, the “apparent KD of MS2 coat protein” value (input ligand: FMN 200 uM) is 0.0958 µM and the “apparent KD of MS2 coat protein” value (input ligand: none) came out at 0.0227 µM.
Taken in the same sequence, the figures for “GAAAACGCAGAGGAUAUAUCAGAUCAAAGCUGCAUAGAAGGCUGCACAUGAGGAUCACCCAUGUGGUCUUCAAA [jl-ex6-4.01 ViennaUCT mod] (Eterna round: R97, puzzle: Exclusion 6)” were 0.243 µM and 0.0209 µM.
Consider “GAAAACGCAGAGGAUAUAUCAGAUCAAAGCUGCAUAGAAGGCUGCACAUGAGGAUCACCCAUGUGGUCUUUAAA [jl-ex6-4.00 ViennaUCT mod] (Eterna round: R97, puzzle: Exclusion 6)”, for which the “apparent KD of MS2 coat protein” value (input ligand: FMN 200 uM) was 0.218 µM and the “apparent KD of MS2 coat protein” value (input ligand: none) came out at 0.022 µM.
The corresponding values for “GAAAACGCAGAGGAUAUUUCAGAUCAAAGCUGCAAAGAAGGCUGCACAUGAGGAUCACCCAUGUGGUCUUCAAG [Mat - Exclusion 6 - JL Mod - D9] (Eterna round: R97, puzzle: Exclusion 6)” are 0.152 µM and 0.029 µM.
The corresponding values for “GAAAACGCUGAGGAUAUUUCUGAUCAAAGCAGCAAAGAAGGCAGCACAUGAGGAUCACCCAUGUGGUCUUCAAU [Mat - Exclusion 6 - JL Mod - D11] (Eterna round: R97, puzzle: Exclusion 6)” are 0.445 µM and 0.033 µM.
Taken in the same sequence, the figures for “GAAAAGAGAGGAUAUACUUGAGGAUCACCCAAGUAGGCGGUAACCGCCACGGGCCAGAGUAGAAGGCUCAAAAC [Beceanlave] (Eterna round: R97, puzzle: Exclusion 3)” were 0.141 µM and 0.0322 µM.
On to “GAAAAGCGAGGAUAUACAUGAGGAUCACCCAUGUAGCAAAAGCGUGCGGCGGUCGGAGGUAGAAGGCGCACAAC [Zamara] (puzzle: Exclusion 3)”, for which the “apparent KD of MS2 coat protein” value under setting [1] was found to be 0.0812 µM, the “apparent KD of MS2 coat protein” value under setting [2] turned out to be 0.0518 µM and the “apparent KD of MS2 coat protein” value under setting [3] was found to be 0.1 µM.
For the sequence “GAAAAGGCAGGAUAUGCAAUGUUUGUCCCAUCUCUCCUAAGACAUGAGGAUCACCCAUGUAGAAGGGCCAGGAA [Eternabot (L2) Solution 62] (Eterna round: R97, puzzle: Exclusion 2)”, the “apparent KD of MS2 coat protein” value runs as follows: (input ligand: FMN 200 uM) 0.0337 µM; (input ligand: none) 0.0265 µM.
For the sequence “GAAAAGGUAGGAUAUACGAAAAAAAAGGGUAGAAAAAAAGCACAUGAGGAUCACCCAUGUAGAAGGACCAAAAG [salish99_ex2_r3_018] (Eterna round: R96, puzzle: Exclusion 2)”, the “apparent KD of MS2 coat protein” value under setting [4] was found to be 0.0296 µM.
As to “GAAAAGGUAGGAUAUACGAAAAAAAAGGGUAGAAAAAAAGCACAUGAGGAUCACCCAUGUAGAAGGACCAAAAG [salish99_ex2_r3_018] (puzzle: Exclusion 2)”, the “apparent KD of MS2 coat protein” value reads like this: under setting [1], 0.137 µM; under setting [2], 0.0325 µM; under setting [3], 0.0335 µM.
Regarding “GAAAAGGUAGGAUAUACGAAAAAAAAGGGUAGAAAAAGAACACAUGAGGAUCACCCAUGUAGAAGGACCAAAAG [salish99_ex2_r3_020] (puzzle: Exclusion 2)”, the “apparent KD of MS2 coat protein” value is 0.0728 µM under setting [1], 0.0209 µM under setting [2] and 0.0203 µM under setting [3].
The corresponding values for “GAAAAGGUAGGAUAUACGAAAAAAAAGGGUAGAAAAUAAACACAUGAGGAUCACCCAUGUAGAAGGACCAAAAG [salish99_ex2_r3_075] (puzzle: Exclusion 2)” are 0.092 µM, 0.0253 µM and 0.0257 µM.
On to “GAAAAGGUAGGAUAUACGAUAAGAAAGGGUAGAGAAGAAACACAUGAGGAUCACCCAUGUAGAAGGACCAAAAG [salish99_ex2_r3_100] (puzzle: Exclusion 2)”, for which the “apparent KD of MS2 coat protein” value is 0.146 µM under setting [1], 0.0236 µM under setting [2] and 0.0332 µM under setting [3].
“GAAAAGGUAGGAUAUACGAUAAGAAAGGGUAGAGAAUAAACACAUGAGGAUCACCCAUGUAGAAGGACCAAAAG [salish99_ex2_r3_101] (puzzle: Exclusion 2)”: the “apparent KD of MS2 coat protein” value was found to be 0.148 µM under setting [1], 0.03 µM under setting [2] and 0.026 µM under setting [3].
“GAAAAGUAAGGAUAUGUCUCCAGUGAGGAAACUCACUGGAGACAGAAGGUACAUGAGGAUCACCCAUGUUCCUC [ExDelusion 5 - Jieux - Exclusion 4] (Eterna round: R97, puzzle: Exclusion 4)”: the “apparent KD of MS2 coat protein” value by setting is: (input ligand: FMN 200 uM) 0.289 µM; (input ligand: none) 0.0427 µM.
On to “GAAAAGUAAGGAUAUUCACACAGUGAGGAAACUCACUGUGUGGAGAAGGUACAUGAGGAUCACCCAUGUUUCUC [ExDelusion 1 - Jieux - Exclusion 4] (Eterna round: R97, puzzle: Exclusion 4)”, for which the “apparent KD of MS2 coat protein” value (input ligand: FMN 200 uM) worked out at 0.229 µM and the “apparent KD of MS2 coat protein” value (input ligand: none) was found to be 0.0303 µM.
For the sequence “GAAAAGUGAGGAUAUGGUAAUGUAAGUAUGUAGUAUGUAAUCCAGAAGGCACAUGAGGAUCACCCAUGUAAAAG [Mat - Exclusion 4 - D102] (puzzle: Exclusion 4)”, under setting [2], the “apparent KD of MS2 coat protein” value was 0.0244 µM.
In the case of “GAAAAUGUAGAGGAUAUUUCAGAUCAAGACUGCAAAGAAGGCUGCACAUGAGGAUCACCCAUGUGGUCAACAAA [Mod of Quesina 15 - Jieux - Exclusion 6] (Eterna round: R97, puzzle: Exclusion 6)”, the “apparent KD of MS2 coat protein” value is, setting by setting: (input ligand: FMN 200 uM) 0.0791 µM; (input ligand: none) 0.0223 µM.
For “GAAAGGGCAGGAUAUGCAGAGAGAGAGAGAGAGAGAAAAAAACAUGAGGAUCACCCAUGUAGAAGGGCCGAAAG [salish99-ex2-06] (Eterna round: R96, puzzle: Exclusion 2)”, the “apparent KD of MS2 coat protein” value by setting is: (input ligand: FMN 200 uM) 0.031 µM; under setting [4], 0.0278 µM; (input ligand: none) 0.0342 µM.
Regarding “GAACCGCGAGGAUAUACAGUCGAGUCCAUUACGUGUCUCGGACUUGAGGAUCACCCAAGUAGAAGGCGUCUCAG [salish99_ex2_r4_634] (Eterna round: R97, puzzle: Exclusion 2)”, the “apparent KD of MS2 coat protein” value came out at 0.0963 µM (input ligand: FMN 200 uM) and 0.188 µM (input ligand: none).
With “GAACUGAAGCAUAGCUUUAGUCGUACAUGAGGAUCACCCAUGUAGGAUAUGGUAGGCAUAGCUUACUAGAAGGAUAGAGUGAUC [Mat - Exclusion NG 3 - Mod of JL - D73] (Eterna round: R96, puzzle: Exclusion NG 3)”, the “apparent KD of MS2 coat protein” value (input ligand: FMN 200 uM) came to 0.595 µM, the “apparent KD of MS2 coat protein” value under setting [4] came to 0.411 µM and the “apparent KD of MS2 coat protein” value (input ligand: none) amounted to 0.243 µM.
The corresponding values for “GAACUGAGGCAAAGCUUUAGUCGUACAUGAGGAUCACCCAUGUAGGAUAUGGUAGGCAAAGCUUACCAGAAGGACAGAGUGAUC [Mat - Exclusion NG 3 - Mod of JL - D60] (Eterna round: R96, puzzle: Exclusion NG 3)” are 0.498 µM, 0.26 µM and 0.257 µM.
As to “GAAGAAGAGAGAAUAGAAAACAUGAGGAUCACCCAUGUGAGAAGAUGAGGGUGUAAUAGGCUUUUGGCUCGUCUUAU (puzzle: Sensor v3, turn-off variant 1)”, the “apparent KD of MS2 coat protein” value reads like this: under setting [1], 0.0379 µM; under setting [2], 0.0897 µM; under setting [3], 0.0472 µM.
As to “GAAGAGACAGGAUAUACAUGAGGAUCACCCAUGUGAGUAAGGUAGAGGCGGAGUAGAUGUAGAAGGGUCAAAGA [JR_Exclu3_Sub015] (puzzle: Exclusion 3)”, the “apparent KD of MS2 coat protein” value is 0.0805 µM under setting [1], 0.0405 µM under setting [2] and 0.0428 µM under setting [3].
As to “GAAGAGGUAGGAUAUACGAAAAAAAAGGGUAGAAAAAAAACACAUGAGGAUCACCCAUGUAGAAGGACCAAAAG [salish99_ex2_r3_034] (puzzle: Exclusion 2)”, the “apparent KD of MS2 coat protein” value runs as follows: under setting [1], 0.102 µM; under setting [2], 0.036 µM; under setting [3], 0.0231 µM.
For the sequence “GAAGCACAUGAGGAUCACCCAUGUAAGGAUAUACGUCUGGUCCGGCCGGACCAGUACCGUAGAAGGUACGUAAA [Excls-Ia] (puzzle: Exclusion 1)”, the “apparent KD of MS2 coat protein” value under setting [2] is 0.0181 µM.
In the case of “GAAGUAAAUGCAGGAUAUACCCACACAUGAGGAUCACCCAUGUAGUCUACUACGGUGUUCUCACGGUAGAAGGGCACAGCCGGA [Eternabot solution 31] (Eterna round: R96, puzzle: Exclusion NG 2)”, the “apparent KD of MS2 coat protein” value was determined as 0.377 µM (input ligand: FMN 200 uM), 0.267 µM under setting [4] and 0.256 µM (input ligand: none).
Turning to “GAAUAACAAGCGAGAUCCUACAUGAGGAUCACCCAUGUGCUCGUCUUAUAAAGUACUAUCACGAAAGUGAUAGUACA [Mat - Sensor v3 - turn-off var 1 - Eli Mod - D62] (puzzle: Sensor v3, turn-off variant 1)”, the “apparent KD of MS2 coat protein” value under setting [1] was 0.0162 µM, the “apparent KD of MS2 coat protein” value under setting [2] was determined as 0.2 µM and the “apparent KD of MS2 coat protein” value under setting [3] turned out to be 0.0175 µM.
The corresponding values for “GAAUAGGCAGGAUAUACAUGAGGAUCACCCAUGUGCCGGCGAUAGGUACGAUCGAAAGGUAGAAGGGCCUAAAC [ChP 13.04.2015 #8] (puzzle: Exclusion 3)” are 0.0307 µM, 0.14 µM and 0.127 µM.
